Data from paper PMC12198772 (PNAS Nexus, 2025).
Values joined by “and” are separate entries in the source; they are usually repeats but may differ in a detail not shown here. Identical values can stand only once. Like-named read-outs stand apart in the source and are kept apart here.

Assays:
Experiment in all cases: BLI
[1] = target: T1, human eye lens-specific protein 20, histidine-tagged (human) (UniProt P55344)
T1 sequence: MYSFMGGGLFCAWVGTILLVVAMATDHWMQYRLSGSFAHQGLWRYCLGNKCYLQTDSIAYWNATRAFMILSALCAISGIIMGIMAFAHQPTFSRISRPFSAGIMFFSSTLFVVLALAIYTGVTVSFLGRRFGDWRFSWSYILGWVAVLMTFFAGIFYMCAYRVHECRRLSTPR

human claudin-3 [2] = target: T2, human claudin-3 (human, UniProt O15551)
human claudin-5 [3] = target: T3, human claudin-5 (human, UniProt O00501)
[4] = target: T4, human claudin-18 splice variant 18.2 (human, UniProt P56856-2)
human claudin-6 [5] = target: T5, human claudin-6 (human, UniProt P56747)
murine claudin-15 [6] = target: T6, murine claudin-15 (mouse, UniProt Q9Z0S5)
[7] = target: Kune-kune from Drosophila melanogaster (Drosophila melanogaster, UniProt A1Z6H0)
human claudin-4 [8] = target: T7, human claudin-4 (human, UniProt O14493)
human claudin-9 [9] = target: T8, human claudin-9 (human, UniProt O95484)
[10] = target: T9, human claudin-18 splice variant 18.1 (human, UniProt P56856)
[11] = target: human peripheral myelin protein 22 (Homo sapiens, UniProt Q01453)
human claudin-1 [12] = target: T10, human claudin-1 (human, UniProt O95832)
human claudin-19 [13] = target: T11, human claudin-19 (human, UniProt Q8N6F1)
human claudin-17 [14] = target: T12, human claudin-17 (human, UniProt P56750)
human claudin-3 [15] = target: T2, human claudin-3; remark: listed apart in the source
human claudin-5 [16] = target: T3, human claudin-5; remark: listed apart in the source
[17] = target: T4, human claudin-18 splice variant 18.2; remark: listed apart in the source
human claudin-6 [18] = target: T5, human claudin-6; remark: listed apart in the source
murine claudin-15 [19] = target: T6, murine claudin-15; remark: listed apart in the source
murine claudin-3 = murine claudin-3 (mouse, UniProt Q9Z0G9)
human claudin-4 [20] = target: T7, human claudin-4; remark: listed apart in the source
human claudin-9 [21] = target: T8, human claudin-9; remark: listed apart in the source
murine claudin-4 [22] = target: murine claudin-4 (mouse, UniProt O35054)
[23] = target: T9, human claudin-18 splice variant 18.1; remark: listed apart in the source
human claudin-1 [24] = target: T10, human claudin-1; remark: listed apart in the source
human claudin-19 [25] = target: T11, human claudin-19; remark: listed apart in the source
human claudin-17 [26] = target: T12, human claudin-17; remark: listed apart in the source
human occludin = human occludin (Homo sapiens, UniProt Q16625)
[27] = target: C-terminal domain of Clostridium perfringens enterotoxin, tag removed (Clostridium perfringens, UniProt P01558)
human claudin-9 [28] = target: T13, human claudin-9 (human, UniProt O95484 1-217)
T13 sequence: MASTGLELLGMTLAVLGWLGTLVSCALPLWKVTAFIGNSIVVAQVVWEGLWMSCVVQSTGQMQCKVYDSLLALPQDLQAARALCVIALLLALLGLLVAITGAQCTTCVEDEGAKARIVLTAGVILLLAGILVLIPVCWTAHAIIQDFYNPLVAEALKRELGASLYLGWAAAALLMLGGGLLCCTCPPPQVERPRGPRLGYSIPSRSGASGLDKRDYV

human claudin-19 [29] = target: T14, human claudin-19 (human, UniProt Q8N6F1 1-224)
T14 sequence: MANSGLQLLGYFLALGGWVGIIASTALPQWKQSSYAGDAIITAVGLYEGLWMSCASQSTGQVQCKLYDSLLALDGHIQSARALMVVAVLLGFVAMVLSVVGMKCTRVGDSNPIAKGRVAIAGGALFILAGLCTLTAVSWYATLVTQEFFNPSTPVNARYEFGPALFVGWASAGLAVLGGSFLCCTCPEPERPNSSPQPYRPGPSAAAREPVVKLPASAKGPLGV

human claudin-17 [30] = target: T15, human claudin-17 (human, UniProt P56750 1-224)
T15 sequence: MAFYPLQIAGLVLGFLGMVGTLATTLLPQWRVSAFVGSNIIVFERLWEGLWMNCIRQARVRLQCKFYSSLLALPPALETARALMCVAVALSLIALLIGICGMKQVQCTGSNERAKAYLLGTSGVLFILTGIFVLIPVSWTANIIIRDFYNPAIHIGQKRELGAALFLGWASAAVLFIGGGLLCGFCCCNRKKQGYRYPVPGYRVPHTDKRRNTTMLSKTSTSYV

human claudin-6 [31] = target: T16, human claudin-6 (human, UniProt P56747 1-220)
T16 sequence: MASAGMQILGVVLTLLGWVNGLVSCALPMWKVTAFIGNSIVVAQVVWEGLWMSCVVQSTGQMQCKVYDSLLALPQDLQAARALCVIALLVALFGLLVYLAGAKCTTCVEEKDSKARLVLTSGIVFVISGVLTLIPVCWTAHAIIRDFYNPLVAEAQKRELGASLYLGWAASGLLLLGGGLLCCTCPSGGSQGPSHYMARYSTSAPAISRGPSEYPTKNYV

murine claudin-4 [32] = target: T17, murine claudin-4 (mouse, UniProt O35054 1-210)
T17 sequence: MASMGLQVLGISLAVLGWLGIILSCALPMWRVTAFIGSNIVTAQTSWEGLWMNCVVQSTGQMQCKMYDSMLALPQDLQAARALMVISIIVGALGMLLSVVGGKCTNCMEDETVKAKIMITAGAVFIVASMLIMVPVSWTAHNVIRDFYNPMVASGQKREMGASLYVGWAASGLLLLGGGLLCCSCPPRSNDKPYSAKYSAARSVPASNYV

T7 sequence (O14493 whole entry): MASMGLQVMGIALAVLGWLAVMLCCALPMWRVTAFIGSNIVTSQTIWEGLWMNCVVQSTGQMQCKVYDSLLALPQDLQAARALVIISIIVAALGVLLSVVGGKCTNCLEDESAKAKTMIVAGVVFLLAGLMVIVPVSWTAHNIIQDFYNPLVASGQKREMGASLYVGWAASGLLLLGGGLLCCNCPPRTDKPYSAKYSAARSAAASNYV
T3 sequence (O00501 whole entry, canonical isoform): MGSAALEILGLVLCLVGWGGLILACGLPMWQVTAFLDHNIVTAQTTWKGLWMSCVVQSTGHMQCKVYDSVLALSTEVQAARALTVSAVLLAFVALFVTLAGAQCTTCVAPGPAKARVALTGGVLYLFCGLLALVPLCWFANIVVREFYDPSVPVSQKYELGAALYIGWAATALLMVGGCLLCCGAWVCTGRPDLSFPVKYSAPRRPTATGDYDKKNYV
Sequence of human peripheral myelin protein 22 (Q01453 whole entry): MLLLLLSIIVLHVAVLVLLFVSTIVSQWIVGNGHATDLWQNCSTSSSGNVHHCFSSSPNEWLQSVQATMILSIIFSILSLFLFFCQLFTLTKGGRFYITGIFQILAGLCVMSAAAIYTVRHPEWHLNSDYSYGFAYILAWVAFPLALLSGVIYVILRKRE
T6 sequence (Q9Z0S5 whole entry): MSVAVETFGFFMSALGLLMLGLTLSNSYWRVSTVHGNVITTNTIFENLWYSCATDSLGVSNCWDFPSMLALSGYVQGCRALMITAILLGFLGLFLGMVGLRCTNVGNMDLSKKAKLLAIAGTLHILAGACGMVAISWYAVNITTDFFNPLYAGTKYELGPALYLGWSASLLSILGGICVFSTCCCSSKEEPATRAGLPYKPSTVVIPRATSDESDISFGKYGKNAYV
T10 sequence (O95832 whole entry): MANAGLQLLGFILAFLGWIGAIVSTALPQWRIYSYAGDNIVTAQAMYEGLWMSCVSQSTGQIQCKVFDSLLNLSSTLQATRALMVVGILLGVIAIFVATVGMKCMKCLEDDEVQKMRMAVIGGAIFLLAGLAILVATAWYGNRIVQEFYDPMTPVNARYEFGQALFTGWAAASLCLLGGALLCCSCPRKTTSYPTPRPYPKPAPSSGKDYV
T2 sequence (O15551 whole entry): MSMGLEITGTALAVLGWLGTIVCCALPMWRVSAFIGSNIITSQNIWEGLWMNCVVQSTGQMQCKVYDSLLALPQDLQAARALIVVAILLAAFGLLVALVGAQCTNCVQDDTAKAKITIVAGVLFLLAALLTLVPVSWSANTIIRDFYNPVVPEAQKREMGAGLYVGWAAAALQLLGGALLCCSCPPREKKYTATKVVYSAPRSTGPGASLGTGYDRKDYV
Sequence of murine claudin-3 (Q9Z0G9 whole entry): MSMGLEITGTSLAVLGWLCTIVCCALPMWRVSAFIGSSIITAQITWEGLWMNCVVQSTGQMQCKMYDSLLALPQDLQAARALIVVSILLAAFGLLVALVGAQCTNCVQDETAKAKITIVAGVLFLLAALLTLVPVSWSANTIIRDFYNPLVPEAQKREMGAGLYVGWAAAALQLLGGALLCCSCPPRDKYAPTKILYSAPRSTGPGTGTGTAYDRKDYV
Sequence of human occludin (Q16625 whole entry, the tested form may be a part): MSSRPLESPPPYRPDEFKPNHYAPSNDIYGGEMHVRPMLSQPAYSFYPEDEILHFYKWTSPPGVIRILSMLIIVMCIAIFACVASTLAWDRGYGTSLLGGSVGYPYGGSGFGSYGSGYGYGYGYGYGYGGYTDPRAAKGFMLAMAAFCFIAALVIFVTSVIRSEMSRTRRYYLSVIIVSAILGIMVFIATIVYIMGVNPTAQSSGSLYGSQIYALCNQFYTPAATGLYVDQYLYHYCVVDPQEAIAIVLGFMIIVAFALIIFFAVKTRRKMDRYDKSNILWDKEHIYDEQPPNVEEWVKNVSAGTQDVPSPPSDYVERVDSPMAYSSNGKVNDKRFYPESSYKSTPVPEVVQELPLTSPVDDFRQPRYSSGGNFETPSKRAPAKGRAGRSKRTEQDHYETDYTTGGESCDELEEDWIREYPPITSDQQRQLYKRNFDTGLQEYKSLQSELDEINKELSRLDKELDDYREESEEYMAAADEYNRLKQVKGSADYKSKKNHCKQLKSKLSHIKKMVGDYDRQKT

B1: COP-1 synthetic antibody fragment (sFab) without histidine tag (Fab, V domains shown)
VH: EVQLVESGGGLVQPGGSLRLSCAASGFNFSSSYIHWVRQAPGKGLEWVASISSSSGSTSYADSVKGRFTISADTSKNTAYLQMNSLRAEDTAVYYCARWFHPWWWWEYLFRGAIDYWGQGTLVTVSS
VL: DIQMTQSPSSLSASVGDRVTITCRASQSVSSAVAWYQQKPGKAPKLLIYSASSLYSGVPSRFSGSRSGTDFTLTISSLQPEDFATYYCQQSSSSLITFGQGTKVEIK
Q: Which Kd [1] does the source give for B1 here?
A: 2780 nM

Q: And the koff [1]?
A: 0.11 s⁻¹

B2: COP-1 synthetic antibody fragment (sFab) with C-terminal histidine tag (Fab, V domains shown)
VH: EVQLVESGGGLVQPGGSLRLSCAASGFNFSSSYIHWVRQAPGKGLEWVASISSSSGSTSYADSVKGRFTISADTSKNTAYLQMNSLRAEDTAVYYCARWFHPWWWWEYLFRGAIDYWGQGTLVTVSS
VL: DIQMTQSPSSLSASVGDRVTITCRASQSVSSAVAWYQQKPGKAPKLLIYSASSLYSGVPSRFSGSRSGTDFTLTISSLQPEDFATYYCQQSSSSLITFGQGTKVEIK
Q: Which Kd (human claudin-3 [2]) does the source give for B2 here?
A: 57.9 ± 0.5 nM

Q: And the koff (human claudin-3 [2])?
A: 0.0012 s⁻¹

Q: What about the kon (human claudin-3 [2]) of the same binder?
A: 21000 M⁻¹ s⁻¹

Q: And the t1/2 (human claudin-3 [2])?
A: 9.6 min

Q: And the Kd (human claudin-5 [3])?
A: 75.8 ± 0.5 nM

Q: What about the koff (human claudin-5 [3]) of the same binder?
A: 0.0015 s⁻¹

Q: And the kon (human claudin-5 [3])?
A: 19000 M⁻¹ s⁻¹

Q: What about the t1/2 (human claudin-5 [3]) of the same binder?
A: 7.7 min

Q: And the Kd [4]?
A: 66.4 ± 0.5 nM

Q: And the koff [4]?
A: 0.0009 s⁻¹

Q: What about the kon [4] of the same binder?
A: 13000 M⁻¹ s⁻¹

Q: What about the t1/2 [4] of the same binder?
A: 12.8 min

Q: What about the Kd (human claudin-6 [5]) of the same binder?
A: 59.5 ± 0.4 nM

Q: And the koff (human claudin-6 [5])?
A: 0.0011 s⁻¹

Q: And the kon (human claudin-6 [5])?
A: 18000 M⁻¹ s⁻¹

Q: And the t1/2 (human claudin-6 [5])?
A: 10.5 min

Q: And the Kd (murine claudin-15 [6])?
A: 59 ± 0.5 nM

Q: And the koff (murine claudin-15 [6])?
A: 0.0012 s⁻¹

Q: What about the kon (murine claudin-15 [6]) of the same binder?
A: 21000 M⁻¹ s⁻¹

Q: What about the t1/2 (murine claudin-15 [6]) of the same binder?
A: 9.6 min

Q: What about the Kd [7] of the same binder?
A: 238 ± 2.9 nM

Q: And the koff [7]?
A: 0.0044 s⁻¹

Q: What about the kon [7] of the same binder?
A: 18000 M⁻¹ s⁻¹

Q: What about the t1/2 [7] of the same binder?
A: 2.7 min

Q: What about the Kd (human claudin-4 [8]) of the same binder?
A: 70.6 nM and 106 nM

Q: And the Kd (human claudin-9 [9])?
A: 66 ± 0.4 nM

Q: And the koff (human claudin-9 [9])?
A: 0.0015 s⁻¹

Q: What about the kon (human claudin-9 [9]) of the same binder?
A: 22000 M⁻¹ s⁻¹

Q: And the t1/2 (human claudin-9 [9])?
A: 7.7 min

Q: What about the Kd [10] of the same binder?
A: 92.4 ± 0.5 nM

Q: What about the koff [10] of the same binder?
A: 0.0014 s⁻¹

Q: And the kon [10]?
A: 16000 M⁻¹ s⁻¹

Q: What about the t1/2 [10] of the same binder?
A: 8.3 min

Q: And the Kd [11]?
A: 109.5 ± 0.8 nM

Q: And the koff [11]?
A: 0.002 s⁻¹

Q: And the kon [11]?
A: 18000 M⁻¹ s⁻¹

Q: And the t1/2 [11]?
A: 5.8 min

Q: And the Kd (human claudin-1 [12])?
A: 61.3 ± 0.5 nM

Q: And the koff (human claudin-1 [12])?
A: 0.0009 s⁻¹

Q: And the kon (human claudin-1 [12])?
A: 15000 M⁻¹ s⁻¹

Q: What about the t1/2 (human claudin-1 [12]) of the same binder?
A: 12.8 min

Q: What about the Kd (human claudin-19 [13]) of the same binder?
A: 62.2 ± 0.4 nM

Q: And the koff (human claudin-19 [13])?
A: 0.0011 s⁻¹

Q: What about the kon (human claudin-19 [13]) of the same binder?
A: 17000 M⁻¹ s⁻¹

Q: What about the t1/2 (human claudin-19 [13]) of the same binder?
A: 10.5 min

Q: And the Kd (human claudin-17 [14])?
A: 80.2 ± 0.6 nM

Q: What about the koff (human claudin-17 [14]) of the same binder?
A: 0.0015 s⁻¹

Q: What about the kon (human claudin-17 [14]) of the same binder?
A: 19000 M⁻¹ s⁻¹

Q: What about the t1/2 (human claudin-17 [14]) of the same binder?
A: 7.7 min

Q: What about the Kd (human claudin-3 [15]) of the same binder?
A: 64.2 ± 1.1 nM

Q: What about the Kd (human claudin-5 [16]) of the same binder?
A: 72 nM and 65.5 nM

Q: What about the Kd [17] of the same binder?
A: 62.8 nM and 55.6 nM

Q: And the Kd (human claudin-6 [18])?
A: 59 ± 0.9 nM

Q: And the Kd (murine claudin-15 [19])?
A: 63.3 nM and 61.2 nM

Q: And the Kd (murine claudin-3)?
A: 90.5 ± 1.2 nM

Q: And the Kd (human claudin-4 [20])?
A: 72.8 ± 0.9 nM

Q: And the Kd (human claudin-9 [21])?
A: 69.9 ± 1.2 nM

Q: What about the Kd (murine claudin-4 [22]) of the same binder?
A: 99.6 ± 1.2 nM

Q: What about the Kd [23] of the same binder?
A: 83.4 nM and 56.7 nM

Q: What about the Kd (human claudin-1 [24]) of the same binder?
A: 76.3 nM and 73.2 nM

Q: And the Kd (human claudin-19 [25])?
A: 62.4 ± 1.1 nM

Q: What about the Kd (human claudin-17 [26]) of the same binder?
A: 65.5 ± 0.9 nM

Q: Does B2 bind (human occludin)?
A: no binding (tested: 500 nM)

Q: Does B2 bind [27]?
A: no binding

B3: C-terminal domain of Clostridium perfringens enterotoxin, histidine-tagged (domain or fragment)
chain: EILDLAAATERLNLTDALNSNPAGNLYDWRSSNSYPWTQKLNLHLTITATGQKYRILASKIVDFNIYSNNFNNLVKLEQSLGDGVKDHYVDISLDAGQYVLVMKANSSYSGNYPYSILFQKF
Q: Which Kd (human claudin-9 [28]) does the source give for B3 here?
A: < 20 nM

Q: What about the Kd (human claudin-19 [29]) of the same binder?
A: 27.5 nM

Q: And the Kd (human claudin-17 [30])?
A: 27 nM

Q: What about the Kd (human claudin-6 [31]) of the same binder?
A: 51.4 nM

Q: And the Kd (murine claudin-4 [32])?
A: < 20 nM
